This passage reports Pb EC50 results from US20110275122A1.

Several values for one entry are separate records, joined by “and”; a condition that tells them apart may be missing. Identical values can stand only once. Where no end group is shown, it is not given here.

The labels stand for the following.
B1: SEQ ID NO: 11 (TPO-mimetic fusion protein of Table 13) (Fc fusion, not shown: a dimerising Fc or GST)
chain: QGCSWGGPTLKNWLQCVRAKHS
modifications: cysteine pairing not given here; also: fused to an Fc molecule, side and linker not given here
B2: SEQ ID NO: 9 (TPO-mimetic fusion protein of Table 13) (Fc fusion, not shown: a dimerising Fc or GST)
chain: QGCSSGGPTLREWQQCRRMQHS
modifications: cysteine pairing not given here; also: fused to an Fc molecule, side and linker not given here
B3: SEQ ID NO: 241 (TPO-mimetic fusion protein of Table 13) (Fc fusion, not shown: a dimerising Fc or GST)
chain: ICTEGCTLRLWLAERSRV
modifications: cysteine pairing not given here; also: Fc fused at N- or C-terminus, side and linker not given here

For this assay, the target named is human mpl receptor (human) (UniProt P40238). The assay can be described thus: cell-based or functional assay.
B1: the Pb EC50 amounted to 4.01 ng/mL. For AWMEGPTLRHWLAARAAY (Fc fusion, not shown: a dimerising Fc or GST, also: Fc fusion, side and linker not given here) [SEQ ID NO: 149 (TPO-mimetic fusion protein of Table 13)], the Pb EC50 was determined as 1.84 ng/mL.

Molecule B2 returned a Pb EC50 of 0.44 ng/mL.

Take SAIEGPTLRHWLAWRAML (Fc fusion, not shown: a dimerising Fc or GST, also: Fc fusion, side and linker not given here) [SEQ ID NO: 117 (TPO-mimetic fusion protein of Table 13)]: the Pb EC50 worked out at 1.09 ng/mL. In turn, HPIEGPTLRLWLAARARA (Fc fusion, not shown: a dimerising Fc or GST, also: Fc fusion, side and linker not given here) [SEQ ID NO: 163 (TPO-mimetic fusion protein of Table 13)] returned a Pb EC50 of 2.8 ng/mL.

In turn, CSSGGPTLREWQQCGRAQ (Fc fusion, part only; not given: Fc and insertion site, part only, cysteine pairing not given here; also: peptide inserted in a loop of an Fc) [Fc-Loop-(SEQ ID NO: 456)] displayed a Pb EC50 of 2.31 ng/mL. In turn, YMMEGPTLRHWLATRAGR (Fc fusion, not shown: a dimerising Fc or GST, also: Fc fusion, side and linker not given here) [SEQ ID NO: 103 (TPO-mimetic fusion protein of Table 13)] came in with a Pb EC50 of 0.79 ng/mL.

As for WPMEGPTLRHWLAARAAR (Fc fusion, not shown: a dimerising Fc or GST, also: Fc fusion, side and linker not given here) [SEQ ID NO: 171 (TPO-mimetic fusion protein of Table 13)], the Pb EC50 was found to be 1.56 ng/mL.

Regarding LTMEGPTLRHWLAARATR (Fc fusion, not shown: a dimerising Fc or GST, also: Fc fusion, side and linker not given here) [SEQ ID NO: 225 (TPO-mimetic fusion protein of Table 13)], the Pb EC50 is 3.1 ng/mL. Regarding YYLEGPTLRHWLAARAYL (Fc fusion, not shown: a dimerising Fc or GST, also: Fc fusion, side and linker not given here) [SEQ ID NO: 128 (TPO-mimetic fusion protein of Table 13)], the Pb EC50 worked out at 1.82 ng/mL.

On to CSSGGPTLREWQQCQRAQ (Fc fusion, part only; not given: Fc and insertion site, part only, cysteine pairing not given here; also: peptide inserted in a loop of an Fc) [Fc-Loop-(SEQ ID NO: 455)], for which the Pb EC50 is 0.27 ng/mL. CSSGGPTLREWQQCSRAQ (Fc fusion, part only; not given: Fc and insertion site, part only, cysteine pairing not given here; also: peptide inserted in a loop of an Fc) [Fc-Loop-(SEQ ID NO: 454)]: the Pb EC50 came to 0.28 ng/mL. For B3 the value was 1.83 ng/mL; for WVMEGPTLRHWLAARASL (Fc fusion, not shown: a dimerising Fc or GST, also: Fc fusion, side and linker not given here) [SEQ ID NO: 123 (TPO-mimetic fusion protein of Table 13)], 2.08 ng/mL.

DAIEGPTLRLWLEARRKQ (Fc fusion, not shown: a dimerising Fc or GST, also: Fc fusion, side and linker not given here) [SEQ ID NO: 139 (TPO-mimetic fusion protein of Table 13)] yielded a Pb EC50 of 1.89 ng/mL. With WMMEGPTLRHWLAARARY (Fc fusion, not shown: a dimerising Fc or GST, also: Fc fusion, side and linker not given here) [SEQ ID NO: 115 (TPO-mimetic fusion protein of Table 13)], the Pb EC50 is 1.43 ng/mL and 1.81 ng/mL.
